In general, Kd refers to the constant that tells how readily two partners part at equilibrium. The low end stands for tighter binding, the high end for weaker binding.

In assay [1] the target is microtubules (MTs) of cultured rat hippocampal neurons (rat (endogenous in hippocampal neurons)) (UniProt P68370). In words: FRAP fitted with a reaction-diffusion-advection simulation.
The target is the same in assay [2]. In words: FRAP fitted with a reaction-diffusion simulation.
Assay [3] shares this target. Description: FRAP fitted with a reaction-diffusion simulation. This is another data set of the same source.

Regarding “GFP-MAP2C, wild type (pAcGFP-His-MAP2C), expressed in cultured rat hippocampal neurons (from UniProt P11137-2 1-471) (natural protein)”, the dissociation constant Kd is 3000 nM in assay [1], 4500 nM in assay [2] and 1000 nM in assay [3].
Substance “GFP-MAP2B expressed in cultured rat hippocampal neurons (from UniProt P11137-1 1-1827) (natural protein)” came in with an equilibrium dissociation constant (Kd) in assay [2] of 1000 nM.

(Values after doi:10.1101/2023.04.26.538370.)
